# B1: ZgHAD (Zobellia galactanivorans) (protein)
# chain: MSAKVKKPELLIFDVNETLLDMGPLENAINESLNSEHAFSLWFRTLLHYSLTETLTGNYVDFGTIGKATLKMTMRKFGKNLSEDRLDAILGNIKKLPAHEDVKEGLKMLKEAQIKLVALSNSNGKLLNAQLQFAGLADYFDAIFSVEAVGRYKPELASYRAVLETMKVPAENTMMVAAHGWDILGAKRAGLRTAFVAREGHAIYPLDGTPELEAKTVLEVARTLLKN
# notes: recombinant, pFO4 vector, E. coli BL21 (DE3); homodimer in solution
# Tests used:
# purified protein [1] = substrate: O=C(O)CI; assay: purified protein; type: biochemical, Zobellia galactanivorans; conditions: 20 °C, 1 mM HEPES, 1 mM EDTA, 20 mM sodium sulfate, 56 μM phenol red, pH 8.2 (initial), 0.3 mg/ml enzyme
# purified protein [2] = substrate: O=C(O)CBr; assay: purified protein; type: biochemical, Zobellia galactanivorans; conditions: 20 °C, 1 mM HEPES, 1 mM EDTA, 20 mM sodium sulfate, 56 μM phenol red, pH 8.2 (initial), 0.3 mg/ml enzyme
protein,measurement,setting,value
B1,Km,purified protein [1],310 µM
same,Km,purified protein [2],460 µM

# — publication PMC8490876, “Functional Characterization of a L-2-Haloacid Dehalogenase From Zobellia galactanivorans Dsij^T Suggests a Role in Haloacetic Acid Catabolism and a Wide Distribution in Marine Environments” (Frontiers in Microbiology, 2021)
